These results are taken from paper PMC4446440, “Structural and functional analysis reveals that human OASL binds dsRNA to enhance RIG-I signaling” (Nucleic Acids Research, 2015).

Data set [1] concerns the molecule itself. As to the kind of experiment: SEC; analytical, Superdex 200 PC3.2/30; OASL run in 50 mM Tris-HCl pH 9, 500 mM NaCl, 10% glycerol, 1.5 mM MgCl2, 1 M urea, 1 mM BME; calibrated with Blue Dextran and albumin.
The target in data set [2] is T1, OLD (OAS-like domain of OASL) wild type (Homo sapiens, UniProt Q15646 1-350).
T1 sequence: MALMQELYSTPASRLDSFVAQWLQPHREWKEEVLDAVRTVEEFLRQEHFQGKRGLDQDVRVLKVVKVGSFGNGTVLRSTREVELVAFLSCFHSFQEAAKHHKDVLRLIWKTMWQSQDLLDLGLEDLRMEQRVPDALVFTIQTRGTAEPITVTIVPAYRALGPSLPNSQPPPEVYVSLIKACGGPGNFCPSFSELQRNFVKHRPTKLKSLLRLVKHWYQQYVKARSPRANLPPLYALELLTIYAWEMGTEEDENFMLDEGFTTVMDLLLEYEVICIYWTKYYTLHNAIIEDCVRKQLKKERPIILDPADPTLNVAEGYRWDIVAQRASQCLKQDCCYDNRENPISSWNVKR
In words: EMSA; OLD 2.4 uM, dsRNA 0-8.6 uM, protein stained; 1.5 mM Mg2+; 100 mM DL-malic acid pH 5.9, 200 (unit not given) Na2SO4, 300 mM NaCl, 1.5 mM MgCl2, 2 mM BME, 5% glycerol; 37 C 15 min; native PAGE in 0.5x TBE. The conditions noted are these: protein: recombinant; tags: C-terminal 6xHis; blunt.

B1: full-length OASL (human 2'-5' oligoadenylate synthetase-like protein), recombinant from insect cells (natural protein, UniProt Q15646 1-514, looked up)
chain: MALMQELYSTPASRLDSFVAQWLQPHREWKEEVLDAVRTVEEFLRQEHFQGKRGLDQDVRVLKVVKVGSFGNGTVLRSTREVELVAFLSCFHSFQEAAKHHKDVLRLIWKTMWQSQDLLDLGLEDLRMEQRVPDALVFTIQTRGTAEPITVTIVPAYRALGPSLPNSQPPPEVYVSLIKACGGPGNFCPSFSELQRNFVKHRPTKLKSLLRLVKHWYQQYVKARSPRANLPPLYALELLTIYAWEMGTEEDENFMLDEGFTTVMDLLLEYEVICIYWTKYYTLHNAIIEDCVRKQLKKERPIILDPADPTLNVAEGYRWDIVAQRASQCLKQDCCYDNRENPISSWNVKRARDIHLTVEQRGYPDFNLIVNPYEPIRKVKEKIRRTRGYSGLQRLSFQVPGSERQLLSSRCSLAKYGIFSHTHIYLLETIPSEIQVFVKNPDGGSYAYAINPNSFILGLKQQIEDQQGLPKKQQQLEFQGQVLQDWLGLGIYGIQDSDTLILSKKKGEALFPAS
notes: human OASL, full length (printed as 61 kDa); OAS-like domain (residues 1-350) followed by two ubiquitin-like domains; also called OAS-like protein
B1: in data set [1], the binding result is recorded as “binds”.

B2: 18 bp dsRNA (dsRNA)
RNA 1: GGCUUUUGACCUUUAUGC
RNA 2: GCAUAAAGGUCAAAAGCC
As to B2, the binding result in data set [2] is “binds”.
